In patent publication US20210292396A1:

Assays:
Assay in all cases: cell-based or functional assay
[1] = molecular target: HIV Env of isolate 3468.v1.c12 (HIV)
[2] = molecular target: HIV Env of isolate SF162.LS (HIV)
[3] = molecular target: Env of HIV isolate 6322.v4.c1 (clade C) (HIV)
[4] = molecular target: HIV Env of isolate MS208.A1 (HIV)
[5] = molecular target: Env of HIV isolate CNE7 (clade BC) (HIV)
[6] = molecular target: HIV Env of isolate C3347.c11 (HIV)
[7] = molecular target: Env of HIV isolate HO86.8 (clade B) (HIV)
[8] = molecular target: HIV Env of isolate 3718.v3.c11 (HIV)
[9] = molecular target: HIV Env of isolate 96ZM651.02 (HIV)
[10] = molecular target: HIV Env of isolate 6838.v1.c35 (HIV)
[11] = molecular target: Env of HIV isolate REJO.67 (clade B) (HIV)
[12] = molecular target: Env of HIV isolate CAP210.E8 (clade C) (HIV)
[13] = molecular target: HIV Env of isolate CNE53 (HIV)
[14] = molecular target: Envelope protein of SIVmac251.30.SG3 (clade NA)
[15] = molecular target: Env of HIV isolate CNE14 (clade B) (HIV)
[16] = molecular target: HIV Env of isolate 3301.v1.c24 (HIV)
[17] = molecular target: HIV Env of isolate MB539.2B7 (HIV)
[18] = molecular target: Env of HIV isolate Q769.d22 (clade A) (HIV)
[19] = molecular target: HIV Env of isolate CNE59 (HIV)
[20] = molecular target: Env of HIV isolate CAAN.A2 (clade B) (HIV)
[21] = molecular target: HIV Env of isolate CNE30 (HIV)
[22] = molecular target: HIV Env of isolate C1080.c3 (HIV)
[23] = molecular target: HIV Env of isolate MN.3 (HIV)
[24] = molecular target: Env of HIV isolate 6631.v3.c10 (clade C) (HIV)
[25] = molecular target: Env of HIV isolate BI369.9A (clade A) (HIV)
[26] = molecular target: HIV Env of isolate TH023.6 (HIV)
[27] = molecular target: HIV Env of isolate REJO.67 (HIV)
[28] = molecular target: HIV Env of isolate TV1.29 (HIV)
[29] = molecular target: HIV Env of isolate 6631.v3.c10 (HIV)
[30] = molecular target: HIV Env of isolate 928-28 (HIV)
[31] = molecular target: HIV Env of isolate X1254.c3 (HIV)
[32] = molecular target: Env of HIV isolate R2184.c4 (clade AE) (HIV)
[33] = molecular target: HIV Env of isolate 6540.v4.c1 (HIV)
[34] = molecular target: Env of HIV isolate BR025.9 (clade C) (HIV)
[35] = molecular target: HIV Env of isolate Ce1176.A3 (HIV)
[36] = molecular target: Env of HIV isolate CAP244.D3 (clade C) (HIV)
[37] = molecular target: Env of HIV isolate ZM197.7 (clade C) (HIV)
[38] = molecular target: Env of HIV isolate X1254.c3 (clade G) (HIV)
[39] = molecular target: Env of HIV isolate 271-11 (clade AG) (HIV)
[40] = molecular target: Env of HIV isolate 235-47 (clade AG) (HIV)
[41] = molecular target: Env of HIV isolate T278-50 (clade AG) (HIV)

PGT121 (antibody)
IC80 [1]: 0.413 µg/mL
IC80 [2]: 0.021 µg/mL
IC50, pseudovirus neutralization [3]: > 50 µg/mL
IC80 [4]: > 50 µg/mL
IC50, pseudovirus neutralization [5]: 0.0477 µg/mL
IC80 [6]: > 50 µg/mL
IC50, pseudovirus neutralization [7]: > 50 µg/mL
IC80 [8]: 4.76 µg/mL
IC80, pseudovirus neutralization [9]: 0.0613 µg/mL
IC80, pseudovirus neutralization [10]: 0.21 µg/mL
IC50, pseudovirus neutralization [11]: 1.96 µg/mL
IC50, pseudovirus neutralization [12]: 4.28 µg/mL
IC80, pseudovirus neutralization [13]: 0.0723 µg/mL
IC50, pseudovirus neutralization [14]: > 50 µg/mL
IC50, pseudovirus neutralization [15]: 0.0103 µg/mL
IC80 [16]: 0.05 µg/mL
IC80 [17]: > 50 µg/mL
IC50, pseudovirus neutralization [18]: > 50 µg/mL
IC80 [19]: > 50 µg/mL
IC50, pseudovirus neutralization [20]: 0.0193 µg/mL
IC80, pseudovirus neutralization [21]: 0.296 µg/mL
IC80 [22]: > 50 µg/mL
IC80 [23]: > 50 µg/mL
IC50, pseudovirus neutralization [24]: > 50 µg/mL
IC50, pseudovirus neutralization [25]: 0.0283 µg/mL
IC80 [26]: > 50 µg/mL
IC80 [27]: > 50 µg/mL
IC80, pseudovirus neutralization [28]: 0.438 µg/mL
IC80, pseudovirus neutralization [29]: > 50 µg/mL
IC80 [30]: 29.9 µg/mL
IC80, pseudovirus neutralization [31]: 0.106 µg/mL
IC50, pseudovirus neutralization [32]: > 50 µg/mL
IC80 [33]: > 50 µg/mL
IC50, pseudovirus neutralization [34]: 0.00967 µg/mL
IC80, pseudovirus neutralization [35]: 0.066 µg/mL
IC50, pseudovirus neutralization [36]: > 50 µg/mL
IC50, pseudovirus neutralization [37]: > 50 µg/mL
IC50, pseudovirus neutralization [38]: 0.0347 µg/mL
IC50, pseudovirus neutralization [39]: > 50 µg/mL
IC50, pseudovirus neutralization [40]: 0.132 µg/mL
IC50, pseudovirus neutralization [41]: > 50 µg/mL
